Measurements: patent US20160159928A1
“And” between values parts separate entries of the source, which are not always exact repeats. Equal values may be shown once. Read-outs that look alike come from different tables or passages of the source.

Tests used:
Assay in all cases: cell-based or functional assay
Kv1.3 (human) = Kv1.3 (human) (UniProt P22001)
CXCR1 [1] = biological target: CXCR1 (UniProt P25024)
CXCR1 [2] = biological target: CXCR1 (UniProt P25024); remark: listed apart in the source

Chain of CXCR1 (P25024 whole entry): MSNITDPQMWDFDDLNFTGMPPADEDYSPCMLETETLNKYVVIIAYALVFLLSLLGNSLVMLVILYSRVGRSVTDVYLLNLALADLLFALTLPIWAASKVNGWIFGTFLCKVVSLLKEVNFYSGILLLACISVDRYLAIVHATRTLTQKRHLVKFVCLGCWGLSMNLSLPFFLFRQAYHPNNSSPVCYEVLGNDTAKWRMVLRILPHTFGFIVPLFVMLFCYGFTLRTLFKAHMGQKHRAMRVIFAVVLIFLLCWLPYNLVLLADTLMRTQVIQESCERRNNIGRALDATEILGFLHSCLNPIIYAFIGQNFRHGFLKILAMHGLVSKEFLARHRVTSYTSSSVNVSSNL
Chain of interleukin 8 (soluble) (P10145 28-99 limits assumed): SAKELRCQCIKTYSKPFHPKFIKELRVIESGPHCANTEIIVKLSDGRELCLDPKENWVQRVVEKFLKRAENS
Chain of Kv1.3 (human) (P22001 whole entry): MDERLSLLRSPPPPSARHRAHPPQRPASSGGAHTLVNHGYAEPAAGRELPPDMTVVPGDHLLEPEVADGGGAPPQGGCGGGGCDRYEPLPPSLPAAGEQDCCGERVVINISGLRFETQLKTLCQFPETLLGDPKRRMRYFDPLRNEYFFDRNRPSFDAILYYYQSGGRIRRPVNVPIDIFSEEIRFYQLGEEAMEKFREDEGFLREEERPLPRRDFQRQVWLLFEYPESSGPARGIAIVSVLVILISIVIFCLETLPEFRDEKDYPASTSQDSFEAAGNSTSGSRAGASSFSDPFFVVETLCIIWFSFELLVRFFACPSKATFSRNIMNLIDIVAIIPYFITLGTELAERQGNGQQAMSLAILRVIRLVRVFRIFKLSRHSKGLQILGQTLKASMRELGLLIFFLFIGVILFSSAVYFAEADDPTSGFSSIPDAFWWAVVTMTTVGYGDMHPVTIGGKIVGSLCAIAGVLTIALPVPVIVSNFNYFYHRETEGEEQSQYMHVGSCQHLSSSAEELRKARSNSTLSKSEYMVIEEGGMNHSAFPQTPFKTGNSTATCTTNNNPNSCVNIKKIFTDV

Negative Control IgG (antibody)
IL-2 ELISA (A450), Donor 1, [IgG] 0.01 nM (Kv1.3 (human)): 2 A450 and 2.15 A450
IL-2 ELISA (A450), Donor 1, [IgG] 0.75 nM (Kv1.3 (human)): 2.11 A450 and 2.04 A450
IL-2 ELISA (A450), Donor 1, [IgG] 68 nM (Kv1.3 (human)): 1.48 A450 and 1.55 A450
IL-2 ELISA (A450), Donor 2, [IgG] 0.01 nM (Kv1.3 (human)): 1.61 A450 and 1.48 A450
IL-2 ELISA (A450), Donor 2, [IgG] 0.75 nM (Kv1.3 (human)): 1.56 A450 and 1.52 A450
IL-2 ELISA (A450), Donor 2, [IgG] 68 nM (Kv1.3 (human)): 1.5 A450 and 1.37 A450
TNF-α ELISA (A450), Donor 1, [IgG] 0.01 nM (Kv1.3 (human)): 1.62 A450 and 1.66 A450
TNF-α ELISA (A450), Donor 1, [IgG] 0.75 nM (Kv1.3 (human)): 1.69 A450 and 1.65 A450
TNF-α ELISA (A450), Donor 1, [IgG] 68 nM (Kv1.3 (human)): 1.02 A450 and 1.13 A450
TNF-α ELISA (A450), Donor 2, [IgG] 0.01 nM (Kv1.3 (human)): 2.07 A450 and 1.77 A450
TNF-α ELISA (A450), Donor 2, [IgG] 0.75 nM (Kv1.3 (human)): 2.04 A450 and 1.85 A450
TNF-α ELISA (A450), Donor 2, [IgG] 68 nM (Kv1.3 (human)): 1.88 A450 and 1.54 A450

interleukin 8 (soluble) (from UniProt P10145 28-99) (ligand)
average RLU at 0.01 nM (CXCR1 [1]): 440 RLU
average RLU at 0.08 nM (CXCR1 [1]): 504 RLU
average RLU at 0.23 nM (CXCR1 [1]): 940 RLU
average RLU at 0.69 nM (CXCR1 [1]): 1940 RLU
average RLU at 2.06 nM (CXCR1 [1]): 4110 RLU
average RLU at 6.17 nM (CXCR1 [1]): 5870 RLU
average RLU at 18.52 nM (CXCR1 [1]): 7300 RLU
average RLU at 31.5 nM (CXCR1 [1]): 55500 RLU
average RLU at 55.56 nM (CXCR1 [1]): 7360 RLU
average RLU at 166.67 nM (CXCR1 [1]): 6770 RLU
average RLU at 500.00 nM (CXCR1 [1]): 5720 RLU
luminescence at 0.1 nM IL-8 domains (CXCR1 [1]): 4200
luminescence at 0.4 nM IL-8 domains (CXCR1 [1]): 6530
luminescence at 0.5 nM IL-8 domains (CXCR1 [1]): 9790
luminescence at 1.6 nM IL-8 domains (CXCR1 [1]): 12200
luminescence at 2.2 nM IL-8 domains (CXCR1 [1]): 25700
luminescence at 6.25 nM IL-8 domains (CXCR1 [1]): 28600
luminescence at 9.9 nM IL-8 domains (CXCR1 [1]): 50300
luminescence at 25 nM IL-8 domains (CXCR1 [1]): 50500
luminescence at 44 nM IL-8 domains (CXCR1 [1]): 54100
luminescence at 100 nM IL-8 domains (CXCR1 [1]): 70200
luminescence at 200 nM IL-8 domains (CXCR1 [1]): 50400
luminescence at 0.4 nM IL-8 domains (CXCR1 [2]): 4930
luminescence at 1.6 nM IL-8 domains (CXCR1 [2]): 8730
luminescence at 6.25 nM IL-8 domains (CXCR1 [2]): 22300
luminescence at 25 nM IL-8 domains (CXCR1 [2]): 42200
luminescence at 100 nM IL-8 domains (CXCR1 [2]): 54000

IgG VH4-4 CDR3 BsaI (lacking the IL-8 insert) (antibody)
average RLU at 0.001 nM IgG (CXCR1 [1]): 7500 RLU
average RLU at 0.004 nM IgG (CXCR1 [1]): 7390 RLU
average RLU at 0.013 nM IgG (CXCR1 [1]): 7050 RLU
average RLU at 0.040 nM IgG (CXCR1 [1]): 6970 RLU
average RLU at 0.120 nM IgG (CXCR1 [1]): 7330 RLU
average RLU at 0.359 nM IgG (CXCR1 [1]): 6690 RLU
average RLU at 1.076 nM IgG (CXCR1 [1]): 7180 RLU
average RLU at 3.228 nM IgG (CXCR1 [1]): 7030 RLU
average RLU at 9.685 nM IgG (CXCR1 [1]): 7170 RLU
average RLU at 29.056 nM IgG (CXCR1 [1]): 7100 RLU
average RLU at 87.167 nM IgG (CXCR1 [1]): 7140 RLU
average RLU at 261.500 nM IgG (CXCR1 [1]): 7540 RLU

BLV1H12 (antibody)
IL-2 ELISA (A450); Donor 1; 150 nM IgG (Kv1.3 (human)): 0.445 A450
IL-2 ELISA (A450); Donor 2; 150 nM IgG (Kv1.3 (human)): 0.355 A450
TNF-α ELISA (A450); Donor 1; 150 nM IgG (Kv1.3 (human)): 0.11 A450
TNF-α ELISA (A450); Donor 2; 150 nM IgG (Kv1.3 (human)): 0.058 A450
